Laboratory results taken from PMC9723502.

Biological target: CsrA-His10 (Escherichia coli K-12, UniProt P69913 1-61)
Assay: EMSA

Binder	binding result
GGGUUCAGGGACGUCAUUACGGGCAGGAUUGCCCACCC (structured_RNA) [FimR2-G23A-G24U]	no binding
GGGUUCAAAGACGUCAUUACGGGCAGGGAUGCCCACCC (structured_RNA) [FimR2 ssRegion mutant]	binds
